Assay: yeast display, Sf9 membrane polyspecificity reagent, FACS + sequencing; frameworks hold sequencing errors
Method in brief: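 After 36–48 hours of galactose induction, yeast (Saccharomyces cerevisiae BJ5465) displaying a synthetic nanobody library were stained at 4 °C for 1 hour with 10% biotinylated, detergent-solubilized Sf9 membrane reagent. Streptavidin microbeads enriched the stained cells before FACS sorting into low and high (top ~1%) gates on anti-HA and streptavidin fluorescence. Each clone's polyreactivity label reflects its gate of origin.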

Row | Sequence | polyreactivity (PSR sort gate)
1 | QVQLVESGGGLVQAGGSLRLSCAASGFTFGGNVMGWYRQAPGTERELVAAITYSGGSTYYADSVKGRFTISRDNAKNTVYLQMNSLIPEDTAVYYCNADATDSYPEKDEHDSWGQGTQVNVSS | low polyreactivity
2 | QVQLVESGGGLVQAGGSLRLSCAASGFTFGGYAMGWYRQAPGKERELVAAISRSGGSTSYADSVKGRFTISRDNAKNTVYLQMNSLKPEDTAVYYCAAKFFRNTYSYGMDYWGLGTQVTVSS | high polyreactivity
3 | QVQLVESGGGLVQAGGSLRLSCAASGFTFGGYAMGWYRQAPGKERELVAAISSGGSTYYADSVKGRFTISRDNAKNTVYLQMNSLKPEDTAVYYCATDLRRYSYRGGHYYWGQGTQVTVSS | high polyreactivity
4 | QVQLVESGGGLVQAGGSLRLSCAASGFTFGGYTMGWYRQAPGKERELVAAISRSGGSTYYADSVKGRFTISRDNAKNTVYLLMNSLKPEDTAVYYCAVTYSVRTYWYDYWGQGTQVTVSS | high polyreactivity
5 | QVQLVESGGGLVQAGGSLRLSCAASGFTFGGYVMGWYRQAPGKERELVAAINQTGGSTYYADSVKGRFTISRDNAKNTVYLQMNSLKPEDTAVYYCAALGYHGYRNYDYWGQGTQVTVSS | low polyreactivity
6 | QVQLVESGGGLVQAGGSLRLSCAASGFTFGINAKGWYRQAPGKERELVAALSWSGGSTYYADSVKGRFTISRDNAKNTVYLQMNSLKPEDTAVYYCAVVWFSLWYKGSTFNRYDYWGQGTQVTVSS | low polyreactivity
7 | QVQLVESGGGLVQAGGSLRLSCAASGFTFGIYAMGRYRQAPGKERELVAAISRSGGSTYYADSVKGRFTISRDNAKNTVYLQMNSLKPEDTAVYYCNTRWGYARGGRYGYWGQGTQVTVSS | high polyreactivity
8 | QVQLVESGGGLVQAGGSLRLSCAASGFTFGIYAMGWYRQAPGKERELVAAISRGGGSTYYADSVKGRFTISRDNAKNTVYLQMNSLKPEDTAVYYCAARYQSPYDYWGQGTQVTVSS | high polyreactivity
9 | QVQLVESGGGLVQAGGSLRLSCAASGFTFGIYAMGWYRQAPGKERELVAAITKGGGSTYYADSVKGRFTISRDNAKNTVYLQMNSLKPEDTAVYYCAARRVSERRVGYWGQGTQVTVSS | high polyreactivity
10 | QVQLVESGGGLVQAGGSLRLSCAASGFTFGKYAMGWYRPAPAKERELVAAISRSGGSTYYADSVKGRFTISRDIAKNTVYLQMNSLKPEDTAVYYCAAYHPIQEYDYWGQGTQVTVSS | high polyreactivity
11 | QVQLVESGGGLVQAGGSLRLSCAASGFTFGKYARGWYRQAPGKERELVAAISRSGGSTYYADSVKGRFTISRDNAKNTVYLQMNSLKPEDTAVYYCAAYHPIQEYDYWGQGTQVTVSS | high polyreactivity
12 | QVQLVESGGGLVQAGGSLRLSCAASGFTFGLYAMGWYRQAPGKERELVAAISWSGDNTYYADSVKGRFTISRDNAKNTVYLQMNSLKPEDTAVYYCAKVTKRNQGYYYWGQGTQVTVSS | high polyreactivity
13 | QVQLVESGGGLVQAGGSLRLSCAASGFTFGNYAMGWYRQAPGKERELVAAITRGGSTYYADSVKGRFTISRDNAKNTVYLQMKSLKPEDTAVYYCAARYFFWFRPSEYYYWGQGTQVTVSS | high polyreactivity
14 | QVQLVESGGGLVQAGGSLRLSCAASGFTFGPNAMGWYRQAPGKEREFVAAISWSGGSTYYADSVKGRFTISRDNAKNTVYLQMNSLKPEDTAVYYCAARYRYTRSGTMGYWGQGTQVTVSS | high polyreactivity
15 | QVQLVESGGGLVQAGGSLRLSCAASGFTFGRNAMGWYRQAPGKERELVAAISRGGSTYYADSVKGRFTISRDNAKNTVYLQMISLKPEDTAVYYCAAETFLKPQYFKKFGYWGQGTQVTVSS | high polyreactivity
16 | QVQLVESGGGLVQAGGSLRLSCAASGFTFGRYAMGWYRQAPGKERELVAAITWSGGTTTYYADSVKGRFTISRDNAKNTVYLQMNSLKPEDTAVYYSAADLYFYIYSYNYWGQGTQVTVSS | low polyreactivity
17 | QVQLVESGGGLVQAGGSLRLSCAASGFTFGRYAMGWYRQAPGKERELVASITSGGSTYYADSVKGRFTISRDNAKNTVYLQMNSLKPEDTAVYYCAAEWRWWGGYYYWGQGTQVTVSS | high polyreactivity
18 | QVQLVESGGGLVQAGGSLRLSCAASGFTFGRYTMGCYRQEPGKERELVAAISKSGSGTFYADSVKGRFTISRDNAKNTVYLQINSLKPEDTAVYYCAARYRHFGNQVRTSHSIMYYWGQGTQVTVSS | high polyreactivity
19 | QVQLVESGGGLVQAGGSLRLSCAASGFTFGRYTMGWYRQAPGKERELVAAISWSGGSTYYADSVKGRFTISRDNAKNTVYLQMNSLKPEDTAVYYCAKVFRGGRGDYWGQGTQVTVSS | high polyreactivity
20 | QVQLVESGGGLVQAGGSLRLSCAASGFTFGSNAMGWYRQAPGKERELVAAISYSGTRTYYADSVKGRFTISRDNAKNTVYLQMNRLKPEDTAVYYCAAGFRKTQFNVRYYYWGHGTQVTVSS | high polyreactivity
21 | QVQLVESGGGLVQAGGSLRLSCAASGFTFGSYAMGWYRQAPGKERELVAAIRQSATRTYYADSVKGRFTISRDNAKNTVYLQMNSLKPEDTAVYYCNVARPGKYFYIYDYWGQGTQVTVSS | low polyreactivity
22 | QVQLVESGGGLVQAGGSLRLSCAASGFTFGSYAMGWYRQAPGKERELVAAITASGGSTYYADSVKGRFTISRDNPKNTVYLQMNSLKPEDTAVYYCNKRWTYKWDDYWGQGTQVTVSS | high polyreactivity

Row | Sequence | polyreactivity (PSR sort gate)
23 | QVQLVESGGGLVQAGGSLRLSCAASGFTFGTYAMGWYRQAPGKERELVAAITSSGTITYYADSVKGRFTISRDNAKNTVYLQMNSLKPEDTAVYYCAARRFRRLRWGQGTQVTVSS | low polyreactivity
24 | QVQLVESGGGLVQAGGSLRLSCAASGFTFGVYAMGWYRQAPGKERELVAAITWGDGSTYYADSVKGRFTISRDNAKNTVYLQMYSLKPEDTAVYYCIAVTRRHIYYYWGQGTQVTVSS | high polyreactivity
25 | QVQLVESGGGLVQAGGSLRLSCAASGFTFGVYTMGWYRQAPGKETELVASISWDGGSTYYADSVKGRFTISRDNAKNTVYLQMNSLKPEDTAVYYCAKGSSFYYGYDYWGQGTQVTVSS | low polyreactivity
26 | QVQLVESGGGLVQAGGSLRLSCAASGFTFGWNAMGWYRQAPGKERELVAAISWSGGSTYYADSVKGRFTISRDNAKKTVYLQMNSLKPEDTAVYYCAAYPAYGGDYWGQGTQVTVSS | high polyreactivity
27 | QVQLVESGGGLVQAGGSLRLSCAASGFTFGWNAMGWYRQAPGKERELVAAISWSGGSTYYADSVKGRFTISRDNAKNTVYLQMNSLKPEDTAVYYCAAYPAYGGDYWGQGTQVTVSS | high polyreactivity
28 | QVQLVESGGGLVQAGGSLRLSCAASGFTFGWYAMGRYRQAPGKERELVAAISRGGSTYYADSVKGRFTISRDNAKNTVYLQMNSLKPEDTAVYYCNAAGLPTQLYYWGQGTQVTVSS | high polyreactivity
29 | QVQLVESGGGLVQAGGSLRLSCAASGFTFGYNDMGWYRQAPGKERELVAAIRLSDGGTYYADSVKGRFTISRDNAKNTVYLQMNSLKPEDTAVYYCAAPQDTYIPYDYWGQGTQVTVSS | low polyreactivity
30 | QVQLVESGGGLVQAGGSLRLSCAASGFTFGYNTMGWYRQAPGKERELVATITSGGSTYYADSVKGRFTISRDNAKNTDYLQMNSLKPEDTAVYYCAATAGSPWAKSRYGYWGQGTQVTVSS | low polyreactivity
31 | QVQLVESGGGLVQAGGSLRLSCAASGFTFGYYAKGWYRQAPGKERELVAGISRGGRTNYADSVKGRFTISRDNAKNTVYLQMNSLKPEDTAVYYCAKDTYYPSSRYNRYYYWGQGSQVTVSS | high polyreactivity
32 | QVQLVESGGGLVQAGGSLRLSCAASGFTFGYYALGWYRQAPGKERELVAAINYSGGSTYYADSVKGRFTISRDNAKNTVYLQMNSLKPEDTAVYYCAAQSYYGRGYWGQGTQVTVSS | high polyreactivity
33 | QVQLVESGGGLVQAGGSLRLSCAASGFTFGYYAMGWYRQAPGKERELVAAISSRGSGTYYADSVKGRFTMSRDNAKNTVYLQLNSLKPEDTAVYYCARPSALLGYWGQGTQVTVSS | low polyreactivity
34 | QVQLVESGGGLVQAGGSLRLSCAASGFTFGYYAMGWYRQAPGKERELVAAITYSGGSTYYADSVKGRFTISRDNAKNTVYLQMNSLKPEDTAVYYCNAYARRYYYGRWYGEFDYWGQGTQVTVSS | low polyreactivity
35 | QVQLVESGGGLVQAGGSLRLSCAASGFTFGYYAMGWYRQAPGKERELVGAINWSGGRTYYADSVKGRFTISRDNAKNTVYLQMNSLKPEDTAVYYCAASAHYDGDYWGQGTQVTVSS | high polyreactivity
36 | QVQLVESGGGLVQAGGSLRLSCAASGFTFGYYGMGWYRQAPGKERELVAAISWSGGSTYYADSVKGRFTISRDNEKNTVYLQMNSLKPEDTAVYYCNADYAGFYQRRYIEDDYWGQGTQVTVSS | low polyreactivity
37 | QVQLVESGGGLVQAGGSLRLSCAASGFTFGYYGMGWYRQAPGKVRELVAAINWSGVNTNYADSVKGRFTISRDNAKNTVYLQMNSLKPEDTAVYYCAADAGYDGYGYWGQGTQVTVSS | low polyreactivity
38 | QVQLVESGGGLVQAGGSLRLSCAASGFTFGYYTMGWYRQAPGKERELVAAISSSGGSTYYADSVKGRFTISRDNAKNTVYLQMNSLKPEDTAVYYCAARSVRYGGRYDYWGQGTQVTVSS | high polyreactivity
39 | QVQLVESGGGLVQAGGSLRLSCAASGFTFGYYTMGWYRQAPGKERELVASISWDGGSTYYADSVKGRFTISRDNAKNTVYLQMHSLKPEDTAVYYCATDDYDQLAVGAYDYWGQGTQVTVSS | low polyreactivity
40 | QVQLVESGGGLVQAGGSLRLSCAASGFTFHGYAMGWYRQAPGKERELVAAISSSGGRTYYADSVKGRFTISRDNAKNTVYLQMNSLKPEDPEVYYCAAKARGIYVPDGGYWGQGTQVTVSS | high polyreactivity
41 | QVQLVESGGGLVQAGGSLRLSCAASGFTFHNNVMGWYRQAPGKERELVATISKSGGSTYYADSVKGRFTISRDNAKNTVYLQMNSLKPEDTAVYYCARRYRDYGRYGYWGQGTQVTVSS | high polyreactivity
42 | QVQLVESGGGLVQAGGSLRLSCAASGFTFHRNAMGWYRQAPGKERELVAAISTRGGSTAYADSVKGRFTISRDNAKNTVYLQMNSLKPEDTAVYYCAARVRVTGTYYTKYDYWGQGTQVTVSS | high polyreactivity
43 | QVQLVESGGGLVQAGGSLRLSCAASGFTFHRNAMGWYRQAPGKERELVAAITLNGGSSTYYADSVKGRFTISRDNAKNTVYLQMNSLKPEDTAVYYCARDSYSYTFSKNSDPAEYDYWGQGTQVTVSS | low polyreactivity

Source: the nanobody polyreactivity screen of Harvey et al. (2022)
